# Measurements: paper PMC12802541
# What was measured:
# [1] = target: Rabbit skeletal actin (rabbit) (UniProt P68135)
# [2] = target: Rabbit skeletal actin (rabbit) (UniProt P68135); test: TIRF microscopy; 50 nM phosphorylated NM2 filaments added to anti-parallel actin arrays anchored by their barbed ends on patterned formin; MB150 (150 mM KCl, 5 mM MgCl2, 0.1 mM EGTA, 20 mM MOPS, pH 7.4), 1 mM ATP, 1 mM DTT, 0.6% methylcellulose, 30 °C
"fraction of tension sensor modules that are tensed (amplitude of the long lifetime component, global fit of FLIM) on patterned actin bundles [1]",dwell time (lifetime of attachment) [2],Substance
80%,–,"TsMod NM2A (non-muscle myosin 2A with an embedded FRET-based tension sensor module), RLC phosphorylated (from UniProt P35579 1-1960; P60660 1-151; O14950 1-172) (complex)"
–,> 15 min,"Non-muscle myosin 2B, Halo-tagged, phosphorylated, pre-polymerized filaments (from UniProt P35580 1-1976; P60660 1-151; O14950 1-172) (complex)"
